Reference: PMC4666372 (Nucleic Acids Research, 2015)

Molecular target: T1, His-tagged TopA67 (N-terminal region of TopA, 67 kDa, residues 1-597) (E. coli, UniProt P06612 1-597)
T1 construct: DNA topoisomerase I (TopA) of E. coli, residues 1-597; source: E. coli BL21(DE3), 1 mM IPTG 3 h 37°C, purified (Ni-NTA agarose); not shown: His-tag, N-terminal, kept
T1 sequence (looked up): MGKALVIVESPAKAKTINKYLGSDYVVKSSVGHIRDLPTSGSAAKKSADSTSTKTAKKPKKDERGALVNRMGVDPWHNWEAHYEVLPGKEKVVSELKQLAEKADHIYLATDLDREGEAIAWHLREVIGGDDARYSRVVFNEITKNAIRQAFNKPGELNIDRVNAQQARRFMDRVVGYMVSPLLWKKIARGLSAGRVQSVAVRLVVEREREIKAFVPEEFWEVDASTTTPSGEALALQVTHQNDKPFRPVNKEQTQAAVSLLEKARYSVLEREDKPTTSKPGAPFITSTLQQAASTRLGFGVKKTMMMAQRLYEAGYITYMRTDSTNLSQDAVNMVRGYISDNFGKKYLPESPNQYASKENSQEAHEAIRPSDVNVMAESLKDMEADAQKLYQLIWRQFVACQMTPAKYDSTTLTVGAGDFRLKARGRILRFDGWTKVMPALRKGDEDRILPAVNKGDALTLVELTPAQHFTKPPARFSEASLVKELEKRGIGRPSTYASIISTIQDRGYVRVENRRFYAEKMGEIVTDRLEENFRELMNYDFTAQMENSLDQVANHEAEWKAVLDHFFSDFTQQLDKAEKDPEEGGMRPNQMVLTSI
Test: co-IP; purified PrS-TopAI and TopA, TopA67 or TopA14 at a molar ratio of 1:5 in buffer A (20 mM Tris-HCl pH 8.0, 150 mM NaCl), in the absence of DNA; anti-protein S antiserum, protein G agarose, 4°C; western blot with anti-His antibody
Details: both partners purified

B1: PrS-TopAI (N-terminal domain of Protein S fused to TopAI, His-tagged) (natural protein)
chain: not shown
notes: also called PrS-YjhX; YjhX
B1: binds.
